Experiments:
[1] = molecular target: His6-MBP-OspR fusion (Kamptonema sp. (formerly Oscillatoria) PCC 6506)
[2] = molecular target: OspR, untagged (peptide arginase from Kamptonema sp. PCC 6506) (Kamptonema sp. (formerly Oscillatoria) PCC 6506); test: SEC; analytical size exclusion chromatography of OspR in solution (Figure S18); conditions in the SI
[3] = molecular target: His6-MBP-OspR fusion (Kamptonema sp. (formerly Oscillatoria) PCC 6506); remark: listed apart in the source

Q: With “His6-OspA precursor protein, unmodified (natural protein)” as the substance, how does the KM of OspR toward unmodified OspA, Michaelis–Menten kinetics by urea detection assay (50 mM TRIS-HCl pH 8.5, 1 mM MnCl2, 25 °C) [1] read?
A: 9.01 μM

Q: Which stoichiometry N [2] does the source give for “OspR, untagged (peptide arginase from Kamptonema sp. PCC 6506) (enzyme)” here?
A: 2

Q: “His6-OspA^MD, fully cyclized-and-epimerized OspA precursor protein (natural protein)” was tested. Which KM of OspR toward cyclized-and-epimerized OspA^MD, Michaelis–Menten kinetics by urea detection assay (50 mM TRIS-HCl pH 8.5, 1 mM MnCl2, 25 °C) [3] did it give?
A: 6.33 μM

From article PMC10028609
